Test [1] concerns HCC329. In words: wound healing migration assay, HCC329. The settings on record: JNJ, 48 hours. It counts as cell-based, human. The method, then:
The HCC cells were cultivated on 24-well plates accompanied with a wound healing culture insert until confluence followed by serum starvation of the cells for 24 hours and the culture insert were then removed. After appropriate treatments, pictures were taken under a phase contrast microscope at indicated times.
Cell numbers were counted, and the relative doubling times of the respective treated groups were determined by taking the data of the untreated group as 100%. […] Relative migration was analyzed quantitatively by taking the motility of untreated cells (Con) as 1.0.

For test [2], the system named is HCC372. In words: wound healing migration assay, HCC372. The test is classed as cell-based, human. The settings on record: JNJ 26.5 nM, 48 hours. The method, then:
The HCC cells were cultivated on 24-well plates accompanied with a wound healing culture insert until confluence followed by serum starvation of the cells for 24 hours and the culture insert were then removed. After appropriate treatments, pictures were taken under a phase contrast microscope at indicated times. Quantitative analysis of motility of the HCC cell lines described in Example 1 was performed by directly counting the cells migrating into the blanking area at 48 hours using Image J. Software available from the NIH website. In general, motilities of the mesenchymal HCCs were higher than those of the epithelial ones.
The most motile HCC cell lines identified in Example 2, namely HCC372 and HCC329, were employed for testing the molecular and cellular effects of FIP-gts on HCC, in comparison with those of JNJ-38877605 (abbreviated hereafter as JNJ), which is an ATP-competitive inhibitor for the catalytic activity of c-Met. In the cell proliferation assay, HCC329 and HCC372 cells were untreated or treated with FIP-gts (prepared in Example 4) at 0.5, 1.0 or 2.0 μg/ml for 72 hours. Cell numbers were counted, and the relative doubling times of the respective treated groups were determined by taking the data of the untreated group as 100%. […] Relative migration was analyzed quantitatively by taking the motility of untreated cells (Con) as 1.0. […]

Test [3] deals with HCC329. In words: HCC329 tumor development and metastasis in SCID mice model. The test is classed as in vivo. Conditions: JNJ 0.5-2.0 nmole/g mouse, intraperitoneal twice a week, 2 months. The method, then: HCC329 cells (approximately 2×10^7) suspended in 100 μl Dulbecco's Modified Eagle Medium (DMEM; Gibco, Grand Island, N.Y., USA) were directly injected into the subserosa of the middle liver lobe of the SCID mice, followed by intraperitoneal administration twice a week with DMEM as a vehicle, vehicle-containing FIP-gts (4.0-20 μg/g mouse) or JNJ (0.5-2.0 nmole/g mouse).
The mice were sacrificed 2 months after injection. Tumor mass was measured and the occurrence of intrahepatic metastasis and/or extrahepatic metastasis was recorded. Nodules with diameter of more than 0.1-0.2 cm observed on the left or right lobes were recognized as secondary tumor foci. […] Extra-hepatic metastasis was defined to be the case where the tumors appearing in organs other than liver such as in intestine. During the animal experiment, the regulations relevant to the care and use of laboratory animals were followed. This was approved by the Institutional Animal Care and Use Committee (IACUC) in Tzu Chi University (No. of consent form: 102080).

For test [4], the system named is HCC329. In words: MTT cell viability, HCC329. It counts as cell-based, human. Conditions: 48 hours. The method, then:
(§1) HCC372 and HCC329 cell lines established in Example 2 were cultured in 24-well plates at 1×10^5 cells/well in Dulbecco's Modified Eagle Medium (DMEM; Sigma, St. Louis, Mo., USA) supplemented with 1% heat-inactivated fetal bovine serum (FBS; Gibco, N.Y., USA) in the presence or absence of FIP-gmi, FIP-fve and FIP-vvo prepared in Example 4 at 1, 2.5 and 5 μg/ml for 48 hours. The supernatant was removed and 25 μl per well of 2.5 mg/ml MTT (3-[4,5-dimethylthiazol-2-yl]-2,5-dipheyltetrazolium bromide; Sigma Chemical Co., St. Louis, Mo., USA) in phosphate-buffered saline (PBS) was added. The plates were incubated at 37° C. for 1 hour to allow the transformation of MTT into water-insoluble formazan crystals. Then, the supernatant was removed and dimethyl sulfoxide (DMSO) was added to all wells and mixed thoroughly to dissolve the dark blue crystals. After a few minutes at room temperature to ensure that all crystals were totally dissolved, the plates were read at 570 nm. Relative survival rate was calculated by taking the number of untreated cells (Con) as 100%. The results are shown in FIGS. 6A and 6B, where the data were representative of 4 reproducible experiments.

In test [5] the test system is c-Met, p-c-Met and p-JNK in HCC372. In words: western blotting of c-Met dependent signaling (Example 10), HCC372. The test is classed as cell-based, human. Conditions: HCC372 (HGFR-positive). On the procedure: To investigate the molecular mechanism of FIP-gts in suppression of tumor progression of HCCs, the effects of FIP-gts on the activity and/or quantity of the critical members present in c-Met dependent signaling pathway, including c-Met, phosphorylated c-Met (p-c-Met) and downstream effectors p-JNK and p-ERK, were examined in HCCs. HCC329 and HCC372 cells were treated with FIP-gts (2 μg/ml) for 4 or 24 hours. Total proteins were harvested from the cells and subjected to immuno-blotting analysis using GAPDH as a loading control. Antibodies for p-c-Met, p-JNK, p-ERK and p-paxillin (S178), GAPDH and ERK were purchased from Santa Cruz Biotechnology (California, USA). The band intensities on the blots were quantified with Image J. Software. Relative band intensity of each molecule was calculated, taking the data of untreated HCC372 or HCC329 as 1.0. The results were shown in FIGS. 5A and 5B, in which (**) (##) and (*) (#) represent statistical significance (p<0.005 and p<0.05, respectively, n=3) between the indicated inhibitor-treated sample and untreated HCC329 or HCC372 control group.
The experiments described in Example 7 were repeated, except that FIP-gts was replaced with FIP-gmi, FIP-fve and FIP-vvo for treating HCC329 and HCC372. […] In addition, since c-Met was not substantially expressed in HCC329, the inhibitory effects of FIP-gmi, FIP-fve and FIP-vvo on HCC329 must be exerted through blockage on a c-Met independent signaling, such as EGFR-dependent signaling pathway.
For orientation: A western blot detects proteins with antibodies after separation by electrophoresis.

The subject of test [6] is HCC372. In words: MTT cell viability, HCC372. The test is classed as cell-based, human. The settings on record: 48 hours. On the procedure: as §1
The test system of test [7] is HCC372. The test can be described thus: transwell migration assay, HCC372. It counts as cell-based, human. Conditions: FIP-fve 10 μg/ml, 48 hours. On the procedure:
(§2) Further, the effects of the three FIPs on migration of both HCC cells were examined. HCC372 and HCC329 cells were seeded on a 24-well transwell migration insert (Nalge Nunc International Corp., Rochester, N.Y., USA) in a complete medium for 24 hours. After treatment with FIP-gmi (3 μg/ml), FIP-fve (10 μg/ml) and FIP-vvo (2.5 μg/ml) for 48 hours, cells that had migrated to the underside of the insert membrane were stained with 0.3% crystal violet. The cells on the topside of the insert membrane were rubbed with a cotton swab. The migrated cells on the underside were imaged using phase contrast microscopy with 200× magnification.

In test [8] the test system is HCC329. In words: transwell migration assay, HCC329. Conditions: FIP-fve 10 μg/ml, 48 hours. It counts as cell-based, human. The method, then:
as §2

Experimental findings from patent US20170368119A1, “METHODS AND COMPOSITIONS FOR TREATING C-MET ASSOCIATED CANCERS” (YEASTERN BIOTECH CO., LTD, priority 2014, published 2017) are described below.

Regarding `Cn1cc(-c2ccc3nnc(C(F)(F)c4ccc5ncccc5c4)n3n2)cn1` [JNJ-38877605, reference compound], the “suppression of cell migration” value in test [1] amounted to 15%. Besides, in test [2], the “suppression of cell migration” value is given as 50%. For the same molecule, in test [3], the “secondary tumors on liver lobes (intra-hepatic metastasis)” value was “secondary tumors were observed on left and right liver lobes”; the “tumor progression of HCC329” value is “not prominent”.

B1: FIP-fve: fungal immunomodulatory protein from Flammulina veltipes, SEQ ID NO: 2 (protein)
chain: SATSLTFQLAYLVKKIDFDYTPNWGRGTPSSYIDNLTFPKVLTDKKYSYRVVVNGSDLGVESNFAVTPSGGQTINFLQYNKGYGVADTKTIQVFVVIPDTGNSEEYIIAEWKKT
modifications: Flammulina Velutipes
For B1, the “suppression of growth (MTT)” value in test [4] (2.5 μg/ml) is on record as 18%; in test [4] (5 μg/ml), 22%; in test [6] (2.5 μg/ml), 13%; in test [6] (5 μg/ml) it was 13%. Moreover, the “effect on c-Met” value in test [5] is recorded as “significantly suppressed”. Also, in test [5], the “effect on p-JNK” value is given as “significantly suppressed”. Also, the “effect on p-c-Met” value in test [5] is reported as “significantly suppressed”. The “suppression of cell migration (transwell)” value in test [7] and in test [8] was “marginally suppressed” in each case.
